Two molecules from publication PMC4742118, “The ON:OFF switch, σ1R-HINT1 protein, controls GPCR-NMDA receptor cross-regulation: Implications in neurological disorders” (Oncotarget, 2015) can be followed below.

B1: GST-MOR (domain or fragment, mus musculus, UniProt P42866 286-398, looked up)
chain: VAVFIVCWTPIHIYVIIKALITIPETTFQTVSWHFCIALGYTNSCLNPVLYAFLDENFKRCFREFCIPTSSTIEQQNSARIRQNTREHPSTANTVDRTNHQLENLEAETAPLP
notes: C-terminal region of mus musculus MOR1 (AB047546), residues 286-398; the methods speak of MOR Ct; also called GST-tagged MOR; MOR Ct; source: E. coli BL21 (KRX), purified (GSTrap FF); not shown: GST, N-terminal, kept
B2: recombinant HINT1 protein (natural protein, mouse, UniProt P70349 1-126, looked up)
chain: MADEIAKAQVAQPGGDTIFGKIIRKEIPAKIIFEDDRCLAFHDISPQAPTHFLVIPKKHISQISVADDDDESLLGHLMIVGKKCAADLGLKRGYRMVVNEGADGGQSVYHIHLHVLGGRQMNWPPG
notes: HINT1, coding region of NM_008248, amplified from mouse brain RNA; also called PKCI/HINT1; source: E. coli BL21 (KRX), purified (GSTrap FF; when necessary cleaved with ProTEV and electroeluted)

What all share (details): both partners purified
Assay [1] addresses B2. Briefly: pull-down; displacement assay: HINT1 200 nM preincubated with agarose-NR1 or agarose-MOR in 50 mM Tris-HCl pH 7.5, 2.5 mM CaCl2, 0.2% CHAPS at RT; free HINT1 removed; σ1R added (100 nM, 300 nM or 1 uM on NR1; 300 nM on MOR); Western blot of bound HINT1 and σ1R.
For a further assay, the target named is T1, recombinant σ1R (murine, UniProt O55242 1-223).
T1 construct: murine full-length (1-223) σ1R, GenBank AF004927; Used as prey; also called sigma 1 receptor; source: E. coli BL21 (KRX), purified (GSTrap FF; when necessary cleaved with ProTEV and electroeluted)
In words: pull-down; bait (GST-NR1 C0-C1-C2 or GST-MOR) covalently attached to NHS-activated Sepharose; σ1R 100 nM in 50 mM Tris-HCl pH 7.4, 0.2% CHAPS, 30 min RT; 0 mM CaCl2; Western blot.

The target of a further assay is T2, GST-σ1R (murine, UniProt O55242 1-223).
T2 construct: murine full-length (1-223) σ1R, GenBank AF004927, cloned downstream of GST and a TEV protease site; also called GST-tagged σ1 receptor; source: E. coli BL21 (KRX), purified (GSTrap FF); not shown: GST, N-terminal, kept
In words: pull-down; HINT1 protomer 200 nM with GST fusion protein 100 nM in 50 mM Tris-HCl pH 7.4, 2.5 mM CaCl2, 0.2% CHAPS, 30 min RT; captured on glutathione Sepharose 4B; Western blot. A general note: In western blotting, separated proteins are transferred to a membrane and probed.

T1 sequence (O55242 whole entry): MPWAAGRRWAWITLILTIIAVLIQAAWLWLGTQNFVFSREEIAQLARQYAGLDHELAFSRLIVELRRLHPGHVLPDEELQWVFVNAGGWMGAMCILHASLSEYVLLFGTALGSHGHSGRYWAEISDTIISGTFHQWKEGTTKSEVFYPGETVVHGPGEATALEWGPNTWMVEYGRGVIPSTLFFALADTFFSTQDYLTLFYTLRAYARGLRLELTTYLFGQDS
T2 sequence (O55242 whole entry): as above

For B1, the binding result (in assay [1]; with recombinant σ1R) was “binds” in each case.
Regarding B2, in the assay with GST-σ1R, the binding result is recorded as “binds”.
